Test results from patent US20050164186, “Alteration of restriction endonuclease specificity by genetic selection” (published 2005).

Molecular target: T1, BstYI NN1 (K133N/S172N) (Bacillus stearothermophilus, K133N,S172N)
T1 chain: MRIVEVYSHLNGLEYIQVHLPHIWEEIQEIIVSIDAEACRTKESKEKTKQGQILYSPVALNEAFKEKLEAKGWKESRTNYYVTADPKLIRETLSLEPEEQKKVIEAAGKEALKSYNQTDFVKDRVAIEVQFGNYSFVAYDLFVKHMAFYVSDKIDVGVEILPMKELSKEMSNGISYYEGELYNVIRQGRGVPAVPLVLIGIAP
Test: cleavage_in_vitro; 60 C
Settings: label: radiolabel

B1: AGATCT site, 60 bp substrate (dsDNA)
DNA 1: AGATCT
DNA 2: AGATCT
binding signal: 7 fold preference over AGATCC/GGATCT
